Targets include HLA-A*02:03; HLA-A*02:01; HLA-A*02:06; HLA-A*68:02; HLA-A*02:02.
Test in all cases: IEDB peptide-MHC binding, purified MHC/competitive/radioactivity; ≥ and ≤ were set here for values at or beyond the usual limits of such assays
[1] abbreviates: source organism: Vaccinia virus WR.
[2] abbreviates: source organism: Hepacivirus hominis.
Where [3] appears, read: source organism: Influenza A virus.

This passage reports IC50 results from the Immune Epitope Database (IEDB).

Turning to MIHKTYIDV, the IC50 with HLA-A*02:03 (setting [1]) was 15 nM; in the experiment with HLA-A*02:01 (setting [1]) it was 1920 nM; with HLA-A*02:06 (setting [1]), 126 nM; with HLA-A*68:02 (setting [1]) it was 269 nM; with HLA-A*02:02 (setting [1]), 1400 nM.

Consider NVSGVPHSV, for which the IC50 in the experiment with HLA-A*02:03 (setting [1]) came to 24 nM; in the experiment with HLA-A*02:01 (setting [1]), 592 nM; in the experiment with HLA-A*02:06 (setting [1]) it was 278 nM; with HLA-A*68:02 (setting [1]), 2.8 nM; with HLA-A*02:02 (setting [1]) it was 825 nM.

As for FVVFLLVTL, the IC50 with HLA-A*02:03 (source organism: SARS-CoV1) was found to be 1640 nM; in the experiment with HLA-A*02:01 (source organism: SARS-CoV1) it was 839 nM; in the experiment with HLA-A*02:06 (source organism: SARS-CoV1) it was 38 nM; with HLA-A*68:02 (source organism: SARS-CoV1), 120 nM; with HLA-A*02:02 (source organism: SARS-CoV1) it was 217 nM.

On to YTVEFDRDKV, for which the IC50 in the experiment with HLA-A*02:03 (setting [1]) was found to be 154 nM; in the experiment with HLA-A*02:01 (setting [1]), 934 nM; with HLA-A*02:06 (setting [1]) it was 22 nM; with HLA-A*68:02 (setting [1]), 4.5 nM; with HLA-A*02:02 (setting [1]), 83 nM.

IMRVMANNV: the IC50 was 1260 nM with HLA-A*02:03 (setting [1]); 311 nM with HLA-A*02:01 (setting [1]); 2500 nM with HLA-A*02:06 (setting [1]); 1180 nM with HLA-A*68:02 (setting [1]); 396 nM with HLA-A*02:02 (setting [1]).

In the case of DVFRPLFDFV, the IC50 with HLA-A*02:03 (setting [1]) amounted to 2570 nM; with HLA-A*02:01 (setting [1]), 1650 nM; with HLA-A*02:06 (setting [1]) it was 232 nM; in the experiment with HLA-A*68:02 (setting [1]) it was 180 nM; with HLA-A*02:02 (setting [1]), 1020 nM.

Regarding ILASFSAST, the IC50 with HLA-A*02:03 (source organism: SARS-CoV1) stood at 5.3 nM; with HLA-A*02:01 (source organism: SARS-CoV1), 16 nM; with HLA-A*02:06 (source organism: SARS-CoV1), 457 nM; with HLA-A*68:02 (source organism: SARS-CoV1) it was 1220 nM; in the experiment with HLA-A*02:02 (source organism: SARS-CoV1) it was 1.6 nM.

For ALMIAAQVVV, the IC50 with HLA-A*02:03 (setting [2]) stood at 71 nM; with HLA-A*02:01 (setting [2]), 129 nM; in the experiment with HLA-A*02:06 (setting [2]), 614 nM; in the experiment with HLA-A*68:02 (setting [2]), 1420 nM; with HLA-A*02:02 (setting [2]), 50 nM.

Turning to WLVIGVAFL, the IC50 with HLA-A*02:03 (source organism: SARS-CoV1) was 0.94 nM; in the experiment with HLA-A*02:01 (source organism: SARS-CoV1), 35 nM; in the experiment with HLA-A*02:06 (source organism: SARS-CoV1) it was 180 nM; in the experiment with HLA-A*68:02 (source organism: SARS-CoV1) it was 127 nM; with HLA-A*02:02 (source organism: SARS-CoV1), 2.6 nM.

For SMSQELAELL, the IC50 with HLA-A*02:03 (setting [1]) amounted to 55 nM; with HLA-A*02:01 (setting [1]) it was 32 nM; with HLA-A*02:06 (setting [1]), 474 nM; with HLA-A*68:02 (setting [1]) it was 1300 nM; in the experiment with HLA-A*02:02 (setting [1]), 6.2 nM.

On to SIVCIVAAV, for which the IC50 with HLA-A*02:03 (setting [1]) was found to be 2.8 nM; with HLA-A*02:01 (setting [1]), 5.3 nM; with HLA-A*02:06 (setting [1]) it was 3.5 nM; in the experiment with HLA-A*68:02 (setting [1]), 0.55 nM; in the experiment with HLA-A*02:02 (setting [1]) it was 3.9 nM.

Consider TILDDNLYKV, for which the IC50 in the experiment with HLA-A*02:03 (setting [1]) is 1630 nM; in the experiment with HLA-A*02:01 (setting [1]) it was 239 nM; with HLA-A*02:06 (setting [1]) it was 49 nM; in the experiment with HLA-A*68:02 (setting [1]), 1420 nM; with HLA-A*02:02 (setting [1]), 1080 nM.

Consider MAFDISVNA, for which the 50% inhibitory concentration (IC50) in the experiment with HLA-A*02:03 (setting [1]) is 15 nM; with HLA-A*02:01 (setting [1]) it was 149 nM; with HLA-A*02:06 (setting [1]), 13 nM; with HLA-A*68:02 (setting [1]), 1.8 nM; in the experiment with HLA-A*02:02 (setting [1]), 191 nM.

For the sequence LLSCISVPV, the IC50 was determined as 4.7 nM with HLA-A*02:03 (setting [2]); 2.5 nM with HLA-A*02:01 (setting [2]); 17 nM in the experiment with HLA-A*02:06 (setting [2]); 15 nM with HLA-A*68:02 (setting [2]); 1.4 nM with HLA-A*02:02 (setting [2]).

For SCLENFRAYV, the IC50 in the experiment with HLA-A*02:03 (setting [3]) is 55 nM; with HLA-A*02:01 (setting [3]), 20 nM; with HLA-A*02:06 (setting [3]), 162 nM; with HLA-A*68:02 (setting [3]), 224 nM; with HLA-A*02:02 (setting [3]), 90 nM.

As to FVMCLEAKT, the IC50 was found to be 1940 nM with HLA-A*02:03 (setting [1]); 3840 nM in the experiment with HLA-A*02:01 (setting [1]); 979 nM in the experiment with HLA-A*02:06 (setting [1]); 1510 nM in the experiment with HLA-A*68:02 (setting [1]); 609 nM with HLA-A*02:02 (setting [1]).

Consider HLMSDNPKA, for which the IC50 with HLA-A*02:03 (setting [1]) stood at 279 nM; in the experiment with HLA-A*02:01 (setting [1]) it was 45 nM; with HLA-A*02:06 (setting [1]) it was 523 nM; in the experiment with HLA-A*68:02 (setting [1]), 1100 nM; in the experiment with HLA-A*02:02 (setting [1]) it was 57 nM.

Turning to FIASAPQQL, the IC50 with HLA-A*02:03 (setting [1]) turned out to be 4.4 nM; with HLA-A*02:01 (setting [1]), 120 nM; with HLA-A*02:06 (setting [1]) it was 89 nM; in the experiment with HLA-A*68:02 (setting [1]), 35 nM; with HLA-A*02:02 (setting [1]) it was 2 nM.

Consider QLMCQPILLL, for which the IC50 was 217 nM with HLA-A*02:03 (source organism: SARS-CoV1); 12 nM with HLA-A*02:01 (source organism: SARS-CoV1); 325 nM with HLA-A*02:06 (source organism: SARS-CoV1); 2310 nM with HLA-A*68:02 (source organism: SARS-CoV1); 92 nM with HLA-A*02:02 (source organism: SARS-CoV1).

Regarding LISLINSLV, the IC50 in the experiment with HLA-A*02:03 (setting [1]) came out at 0.48 nM; in the experiment with HLA-A*02:01 (setting [1]), 15 nM; with HLA-A*02:06 (setting [1]), 72 nM; with HLA-A*68:02 (setting [1]), 68 nM; with HLA-A*02:02 (setting [1]), 0.48 nM.

For the sequence ALINLVQYRI, the IC50 stood at 82 nM with HLA-A*02:03 (setting [1]); 30 nM in the experiment with HLA-A*02:01 (setting [1]); 417 nM in the experiment with HLA-A*02:06 (setting [1]); 1770 nM with HLA-A*68:02 (setting [1]); 8.3 nM with HLA-A*02:02 (setting [1]).

Consider WLGAAITLVV, for which the IC50 in the experiment with HLA-A*02:03 (setting [1]) came out at 78 nM; in the experiment with HLA-A*02:01 (setting [1]) it was 123 nM; with HLA-A*02:06 (setting [1]) it was 1840 nM; in the experiment with HLA-A*68:02 (setting [1]) it was 264 nM; with HLA-A*02:02 (setting [1]) it was 20 nM.

With VLALYSPPL, the IC50 with HLA-A*02:03 (setting [1]) turned out to be 0.41 nM; with HLA-A*02:01 (setting [1]) it was 0.19 nM; with HLA-A*02:06 (setting [1]), 33 nM; with HLA-A*68:02 (setting [1]), 1400 nM; with HLA-A*02:02 (setting [1]) it was 0.22 nM.

Turning to RLPSETFPNV, the IC50 came to 14 nM with HLA-A*02:03 (setting [1]); 0.11 nM with HLA-A*02:01 (setting [1]); 0.58 nM with HLA-A*02:06 (setting [1]); 91 nM in the experiment with HLA-A*68:02 (setting [1]); 173 nM with HLA-A*02:02 (setting [1]).

A word on the IC50: it is the concentration at which inhibition is half-maximal.
